{"source": "patent US20240141025A1", "about": "(PROTHENA BIOSCIENCES, published 2024)", "data": [{"target": "T1, recombinant human TTR F87M/L110M (human, UniProt P02766 21-147)", "experiment": "SPR (Biacore), mAb captured on anti-human chip, TTR F87M/L110M as analyte", "units": {"Kd": "nM", "koff": "s⁻¹", "kon": "M⁻¹ s⁻¹"}, "values": [{"binder": "Hu14G8 H2L1 (antibody, human IgG1, kappa, V domains shown, also called humanized 14G8 VHv2/VLv1) VH: EVQLVESGGGLVQPGGSLKLSCAASGFTFSSYTMSWVRQTPEKRLELVAEINNSGDTTYYPDTVKGRFTISRDNAKNTLYLQMSSLKSEDTAMYYCARHYYYGGGYGGWFFDVWGQGTLVTVSS VL: DIVMTQSAPSLPVTPGESVSISCRSNKSLLHSNGNTYLYWFLQKPGQSPQLLIYRVSNLASGVPDRFSGSGSGTAFTLKISRVEAEDVGVYYCMQHLEYPLTFGQGTKLEIKR", "Kd": 2.26, "koff": 0.000693, "kon": 307000}, {"binder": "Hu14G8 H2L3 (antibody, human IgG1, kappa, V domains shown, also called humanized 14G8 VHv2/VLv3) VH: EVQLVESGGGLVQPGGSLKLSCAASGFTFSSYTMSWVRQTPEKRLELVAEINNSGDTTYYPDTVKGRFTISRDNAKNTLYLQMSSLKSEDTAMYYCARHYYYGGGYGGWFFDVWGQGTLVTVSS VL: DIVMTQSPLSLPVTPGEPASISCRSSKSLLHSNGNTYLYWFLQKPGQSPQLLIYRVSNLASGVPSRFSGSGSGTDFTLKISRVEAEDVGVYYCMQHLEYPLTFGQGTKLEIKR", "Kd": 1.24, "koff": 0.000318, "kon": 252000}, {"binder": "Hu14G8 H2L2 (antibody, human IgG1, kappa, V domains shown, also called humanized 14G8 VHv2/VLv2) VH: EVQLVESGGGLVQPGGSLKLSCAASGFTFSSYTMSWVRQTPEKRLELVAEINNSGDTTYYPDTVKGRFTISRDNAKNTLYLQMSSLKSEDTAMYYCARHYYYGGGYGGWFFDVWGQGTLVTVSS VL: DIVMTQSPLSLPVTPGEPASISCRSNKSLLHSNGNTYLYWFLQKPGQSPQLLIYRVSNLASGVPDRFSGSGSGTDFTLKISRVEAEDVGVYYCMQHLEYPLTFGQGTKLEIKR", "Kd": 2.1, "koff": 0.000683, "kon": 326000}, {"binder": "Hu14G8 H3L1 (antibody, human IgG1, kappa, V domains shown, also called humanized 14G8 VHv3/VLv1) VH: EVQLVESGGGLVQPGGSLKLSCAASGFTFSSYTMSWVRQTPEKRLELVAEINNSGDTTYYPDTVKGRFTISRDNAKNTLYLQMNSLRAEDTAVYYCARHYYYGGGYGGWFFDVWGQGTLVTVSS VL: DIVMTQSAPSLPVTPGESVSISCRSNKSLLHSNGNTYLYWFLQKPGQSPQLLIYRVSNLASGVPDRFSGSGSGTAFTLKISRVEAEDVGVYYCMQHLEYPLTFGQGTKLEIKR", "Kd": 1.76, "koff": 0.000677, "kon": 386000}]}, {"target": "T1, recombinant human TTR F87M/L110M", "experiment": "SPR (Biacore), mAb captured on anti-human chip, TTR F87M/L110M as analyte", "remark": "another data set of the same source", "units": {"Kd": "nM", "koff": "s⁻¹", "kon": "M⁻¹ s⁻¹"}, "values": [{"binder": "Hu9D5 H3L1 (antibody, human IgG1, kappa, V domains shown, also called humanized 9D5 VHv3/VLv1) VH: EVQLVESGGGLVQPGGSLRLSCAASGFTFSSYTMSWVRQAPGKGLEWVSEISNSGDTTYYPDTVKGRFTFSRDNAKNSLYLQSNLLRAEDTAVYYCARHYYYGGGYGGWFFDVWGQGTTVTVSS VL: DIVMTQSPLSLPVTPGEPASISCRSSKSLLHSNGNTYLYWFLQKPGQSPQLLIYRVSNLASGVPDRFSGSGSGTDFTLKISRVEAEDVGVYYCMQHLEYPLTFGQGTKLEIKR", "Kd": 4.32, "koff": 0.000657, "kon": 152000}, {"binder": "Hu9D5 H2L5 (antibody, human IgG1, kappa, V domains shown, also called humanized 9D5 VHv2/VLv5) VH: EVQLVESGGGLVQPGGSLRLSCAASGFTFSSYTMSWVRQAPGKGLELVAEISNSGDTTYYPDTVKGRFTFSRDNAKNSLYLQSNLLRAEDTAVYYCARHYYYGGGYGGWFFDVWGQGTTVTVSS VL: DIVMTQSAPSLPVTPGESVSISCRSSKSLLHSNGNTYLYWFLQRPGQSPQLLIYRVSNLASGVPSRFSGSGSGTAFTLRISRVEAEDVGVYYCMQHLEYPLTFGQGTKLEIKR", "Kd": 6.84, "koff": 0.000785, "kon": 115000}, {"binder": "Hu9D5 H4L1 (antibody, human IgG1, kappa, V domains shown, also called humanized 9D5 VHv4/VLv1) VH: EVQLVESGGGLVQPGGSLRLSCAASGFTFSSYTMSWVRQAPGKGLEWVSEISNSGDTTYYPDTVKGRFTISRDNAKNSLYLQSNLLRAEDTAVYYCARHYYYGGGYGGWFFDVWGQGTTVTVSS VL: DIVMTQSPLSLPVTPGEPASISCRSSKSLLHSNGNTYLYWFLQKPGQSPQLLIYRVSNLASGVPDRFSGSGSGTDFTLKISRVEAEDVGVYYCMQHLEYPLTFGQGTKLEIKR", "Kd": 2.09, "koff": 0.000533, "kon": 254000}]}]}
